Data from US20200148733A1 (Pieris, published 2020).

T1: human IL-23 (human, UniProt Q9NPF7 20-189; P29460 23-328)
T1 construct: Heterodimer of p19 and p40; in the proliferation assays CAT # HZ-1254, HumanZyme; also called hIL-23; hIL23
T1 sequence (looked up) 1: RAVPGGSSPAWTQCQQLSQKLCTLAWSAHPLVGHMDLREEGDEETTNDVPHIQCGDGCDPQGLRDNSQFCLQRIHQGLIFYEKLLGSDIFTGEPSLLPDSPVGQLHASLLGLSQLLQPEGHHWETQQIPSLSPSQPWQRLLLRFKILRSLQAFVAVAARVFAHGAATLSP
T1 sequence (looked up) 2: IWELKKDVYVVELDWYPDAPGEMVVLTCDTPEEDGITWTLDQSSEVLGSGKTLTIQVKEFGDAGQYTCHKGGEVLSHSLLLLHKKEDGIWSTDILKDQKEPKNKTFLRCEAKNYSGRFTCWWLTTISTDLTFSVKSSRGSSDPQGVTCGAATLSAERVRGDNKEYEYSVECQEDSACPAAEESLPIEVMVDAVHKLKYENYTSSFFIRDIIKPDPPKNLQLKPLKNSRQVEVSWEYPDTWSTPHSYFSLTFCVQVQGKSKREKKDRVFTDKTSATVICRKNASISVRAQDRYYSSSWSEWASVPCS

T2: mouse IL-23 (mouse, UniProt Q9EQ14 22-196; P43432 23-335)
T2 construct: also called mIL-23
T2 sequence (looked up) 1: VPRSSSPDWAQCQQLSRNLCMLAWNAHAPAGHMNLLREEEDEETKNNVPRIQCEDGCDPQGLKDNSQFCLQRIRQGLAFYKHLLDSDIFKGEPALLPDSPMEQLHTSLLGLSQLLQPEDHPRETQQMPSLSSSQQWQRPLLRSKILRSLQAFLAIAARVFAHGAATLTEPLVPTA
T2 sequence (looked up) 2: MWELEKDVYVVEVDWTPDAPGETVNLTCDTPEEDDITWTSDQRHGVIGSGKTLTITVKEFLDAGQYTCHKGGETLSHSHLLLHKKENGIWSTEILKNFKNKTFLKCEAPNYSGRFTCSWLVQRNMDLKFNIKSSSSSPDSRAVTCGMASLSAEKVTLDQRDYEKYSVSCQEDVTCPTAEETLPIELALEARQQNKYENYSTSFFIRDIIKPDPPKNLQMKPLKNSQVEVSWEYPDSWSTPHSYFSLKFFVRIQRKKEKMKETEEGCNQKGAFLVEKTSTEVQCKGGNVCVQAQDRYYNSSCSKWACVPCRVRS

T3: human IL-12p40 (human, UniProt P29460 23-328)
T3 construct: also called hIL-12p40
T3 sequence (looked up): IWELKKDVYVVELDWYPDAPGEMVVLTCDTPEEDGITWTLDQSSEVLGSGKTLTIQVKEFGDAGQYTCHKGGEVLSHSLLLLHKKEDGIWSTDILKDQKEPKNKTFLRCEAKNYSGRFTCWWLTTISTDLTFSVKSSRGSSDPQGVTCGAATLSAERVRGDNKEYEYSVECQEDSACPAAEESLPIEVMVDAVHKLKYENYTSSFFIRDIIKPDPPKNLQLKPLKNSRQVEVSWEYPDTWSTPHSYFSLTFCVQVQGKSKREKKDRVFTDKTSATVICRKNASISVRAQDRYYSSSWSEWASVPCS


How the values were obtained:
human IL-23 [1] = molecular target: T1, human IL-23; experiment: Surface Plasmon Resonance, legend of FIG. 6C (rounded value of the measurement of the example)
Description: (§1) Residual activated groups were quenched with ethanolamine. The reference channels were treated with EDC/NHS following ethanolamine (blank immobilization).
(§2) The binding assay was carried out with a contact time of 300 s, dissociation time of 1200 s and applying a flow rate of 30 μL/min. All measurements were performed at 25° C. […] Prior to the protein measurements three startup cycles were performed for conditioning purposes. Data were evaluated with Biacore T200 Evaluation software (V 1.0). Double referencing was used. The 1:1 Binding model was used to fit the raw data.

human IL-23 [2] = molecular target: T1, human IL-23; experiment: cell-based or functional assay
human IL-23 [3] = molecular target: T1, human IL-23; experiment: SPR (Biacore T200), IL-23 amine-coupled to CM5 chip, mutein in solution, 25 C, 1:1 binding model
Description: as §1, §2

human IL-23 [4] = molecular target: T1, human IL-23; experiment: SPR (Biacore T200), hIL-23 immobilized on CM5 chip, mutein injected, fit 1:1 Binding
Description: as §1, §2

mouse IL-23 [5] = molecular target: T2, mouse IL-23; experiment: solution competition ELISA (FIG. 5A)
Description: (§3) In the following detailed experimental protocol, incubation and washing steps were performed as described above in the competition ELISA protocol. A 384-well plate suitable for fluorescence measurements (Greiner FLUOTRAC™ 600, black flat bottom, high-binding) was coated with 20 μl of Neutravidin at a concentration of 5 μg/ml in PBS over night at 4° C. After washing, the Neutravidin-coated wells were blocked with 100 μl PBS-T/BSA for 1h at room temperature.

human IL-12p40 [6] = molecular target: T3, human IL-12p40; experiment: solution competition ELISA, 1 nM SEQ ID NO: 10, plate with biotinylated hIL-23
Description: as §3

human IL-23 [7] = molecular target: T1, human IL-23; experiment: competition ELISA (ECL): 0.01 nM biotinylated hIL-23 pre-incubated with varied mutein, free hIL-23 captured on coated soluble hIL-23R (competitor)
Description: All incubation steps were performed with shaking 300 rpm, and the plate was washed after each incubation step with 80 μl PBS/0.05% Tween 20 for five times using a Biotek ELx405 select CW washer. […] After washing, the receptor-coated wells were blocked with 60 μl PBS-T/BSA for 1 h at room temperature.
After washing, 60 μl MSD Read Buffer T (2×) was added to each well and the plate was read within 15 min.

mouse IL-23 [8] = molecular target: T2, mouse IL-23; experiment: solution competition ELISA (FIG. 5B)
Description: as §3

human IL-23 [9] = molecular target: T1, human IL-23; experiment: Surface Plasmon Resonance, legend of FIG. 6B (rounded value of the measurement of the example)
Description: as §1, §2

human IL-12p40 [10] = molecular target: T3, human IL-12p40; experiment: solution competition ELISA, 10 nM SEQ ID NO: 9, plate with biotinylated hIL-23
Description: as §3

Row | Kd (human IL-23 [1]) [nM] | EC50 [nM] AVERAGE, hIL-23-induced proliferation of Ba/F3 cells expressing hIL-23R and hIL-12Rβ1 (human IL-23 [2]) [nM] | EC50 [nM] Exp 1, hIL-23-induced proliferation of Ba/F3 cells expressing hIL-23R and hIL-12Rβ1 (human IL-23 [2]) [nM] | EC50 [nM] Exp 2, hIL-23-induced proliferation of Ba/F3 cells expressing hIL-23R and hIL-12Rβ1 (human IL-23 [2]) [nM] | EC50 [nM] Exp 3, hIL-23-induced proliferation of Ba/F3 cells expressing hIL-23R and hIL-12Rβ1 (human IL-23 [2]) [nM] | EC50 [nM] Exp 4, hIL-23-induced proliferation of Ba/F3 cells expressing hIL-23R and hIL-12Rβ1 (human IL-23 [2]) [nM] | Kd (human IL-23 [3]) [nM] | koff (human IL-23 [3]) [s⁻¹] | kon (human IL-23 [3]) [M⁻¹ s⁻¹] | koff (human IL-23 [4]) [s⁻¹] | kon (human IL-23 [4]) [M⁻¹ s⁻¹] | binding result (mouse IL-23 [5]) | IC50 (human IL-23 [7]) [nM] | binding result (mouse IL-23 [8]) | Kd (human IL-23 [9]) [nM] | Binder | binding result (human IL-12p40 [6]) | binding result (human IL-12p40 [10])
1 | 11 | 332 | 515 | 199 | 316 | 296 | 11.5 | 0.00048 | 42000 | 0.000598 | 36300 | binds | 1.9 |  |  | lipocalin mutein SEQ ID NO: 10 (designed binder, Human NGAL (lipocalin 2) mutein specific for IL-23p19) QDSTSDLIPAPPLSKVPLQQNFQDNQFHGKWYVVGLAGNTILREDKDPDKMEATIYELKEDKSYNVTSVDFIMKKCWYFITTFVPGSQPGEFTLGHIKSMPGMTSFLVRVVSTNYNQHAMVFFKYVYQNREFFEITLYGRTKELTSELKENFIRFSKSLGLPENHIVFPVPIDQCIDG | no binding (tested: ligand up to 1000 nM) | 
2 |  |  |  |  |  |  | 135 | 0.00063 | 4700 | 0.00063 | 4650 |  | 119 | binds | 135 | lipocalin mutein SEQ ID NO: 9 (designed binder, Human NGAL (lipocalin 2) mutein specific for IL-23p19) QDSTSDLIPAPPLSKVPLQQNFQDNQFHGKWYVVGMAGNLMLREDKDPTKMSATIYELKEDKSYNVTWVDFRFKKCKYQIGTFVPGSQPGEFTLGGIKSMPGMTSFLVRVVSTNYNQHAMVFFKYVYQNREYFEITLYGRTKELTSELKENFIRFSKSLGLPENHIVFPVPIDQCIDG |  | no binding (tested: ligand up to 1000 nM)
